The source of these data is article PMC12416549 (2024).

First the molecules themselves.
B1: L12K (designed binder)
chain: MTLQELLREEAKRRAEAEAFRYALELLAEKFPEQKEYLLDLAEEIESQIRSLSGVDVEDVRKFLDKEWAWVKELLAEHPAELAEVEAARAARLAELRAEVEAKVAA
B2: Q48F (designed binder)
chain: MTLQELLREEALRRAEAEAFRYALELLAEKFPEQKEYLLDLAEEIESFIRSLSGVDVEDVRKFLDKEWAWVKELLAEHPAELAEVEAARAARLAELRAEVEAKVAA
B3: A106K (designed binder)
chain: MTLQELLREEALRRAEAEAFRYALELLAEKFPEQKEYLLDLAEEIESQIRSLSGVDVEDVRKFLDKEWAWVKELLAEHPAELAEVEAARAARLAELRAEVEAKVAK
B4: R61D (designed binder)
chain: MTLQELLREEALRRAEAEAFRYALELLAEKFPEQKEYLLDLAEEIESQIRSLSGVDVEDVDKFLDKEWAWVKELLAEHPAELAEVEAARAARLAELRAEVEAKVAA
B5: L39Q (designed binder)
chain: MTLQELLREEALRRAEAEAFRYALELLAEKFPEQKEYLQDLAEEIESQIRSLSGVDVEDVRKFLDKEWAWVKELLAEHPAELAEVEAARAARLAELRAEVEAKVAA
B6: Y37L (designed binder)
chain: MTLQELLREEALRRAEAEAFRYALELLAEKFPEQKELLLDLAEEIESQIRSLSGVDVEDVRKFLDKEWAWVKELLAEHPAELAEVEAARAARLAELRAEVEAKVAA
B7: D65Y (designed binder)
chain: MTLQELLREEALRRAEAEAFRYALELLAEKFPEQKEYLLDLAEEIESQIRSLSGVDVEDVRKFLYKEWAWVKELLAEHPAELAEVEAARAARLAELRAEVEAKVAA
B8: E33A (designed binder)
chain: MTLQELLREEALRRAEAEAFRYALELLAEKFPAQKEYLLDLAEEIESQIRSLSGVDVEDVRKFLDKEWAWVKELLAEHPAELAEVEAARAARLAELRAEVEAKVAA
B9: A11K (designed binder)
chain: MTLQELLREEKLRRAEAEAFRYALELLAEKFPEQKEYLLDLAEEIESQIRSLSGVDVEDVRKFLDKEWAWVKELLAEHPAELAEVEAARAARLAELRAEVEAKVAA
B10: R13V (designed binder)
chain: MTLQELLREEALVRAEAEAFRYALELLAEKFPEQKEYLLDLAEEIESQIRSLSGVDVEDVRKFLDKEWAWVKELLAEHPAELAEVEAARAARLAELRAEVEAKVAA
B11: V60C (designed binder)
chain: MTLQELLREEALRRAEAEAFRYALELLAEKFPEQKEYLLDLAEEIESQIRSLSGVDVEDCRKFLDKEWAWVKELLAEHPAELAEVEAARAARLAELRAEVEAKVAA
B12: V85C (designed binder)
chain: MTLQELLREEALRRAEAEAFRYALELLAEKFPEQKEYLLDLAEEIESQIRSLSGVDVEDVRKFLDKEWAWVKELLAEHPAELAECEAARAARLAELRAEVEAKVAA
B13: A87Q (designed binder)
chain: MTLQELLREEALRRAEAEAFRYALELLAEKFPEQKEYLLDLAEEIESQIRSLSGVDVEDVRKFLDKEWAWVKELLAEHPAELAEVEQARAARLAELRAEVEAKVAA
B14: E58Q (designed binder)
chain: MTLQELLREEALRRAEAEAFRYALELLAEKFPEQKEYLLDLAEEIESQIRSLSGVDVQDVRKFLDKEWAWVKELLAEHPAELAEVEAARAARLAELRAEVEAKVAA
B15: F31V (designed binder)
chain: MTLQELLREEALRRAEAEAFRYALELLAEKVPEQKEYLLDLAEEIESQIRSLSGVDVEDVRKFLDKEWAWVKELLAEHPAELAEVEAARAARLAELRAEVEAKVAA
B16: E84T (designed binder)
chain: MTLQELLREEALRRAEAEAFRYALELLAEKFPEQKEYLLDLAEEIESQIRSLSGVDVEDVRKFLDKEWAWVKELLAEHPAELATVEAARAARLAELRAEVEAKVAA
B17: T2H (designed binder)
chain: MHLQELLREEALRRAEAEAFRYALELLAEKFPEQKEYLLDLAEEIESQIRSLSGVDVEDVRKFLDKEWAWVKELLAEHPAELAEVEAARAARLAELRAEVEAKVAA
B18: D65G (designed binder)
chain: MTLQELLREEALRRAEAEAFRYALELLAEKFPEQKEYLLDLAEEIESQIRSLSGVDVEDVRKFLGKEWAWVKELLAEHPAELAEVEAARAARLAELRAEVEAKVAA
B19: V57W (designed binder)
chain: MTLQELLREEALRRAEAEAFRYALELLAEKFPEQKEYLLDLAEEIESQIRSLSGVDWEDVRKFLDKEWAWVKELLAEHPAELAEVEAARAARLAELRAEVEAKVAA
B20: E9Y (designed binder)
chain: MTLQELLRYEALRRAEAEAFRYALELLAEKFPEQKEYLLDLAEEIESQIRSLSGVDVEDVRKFLDKEWAWVKELLAEHPAELAEVEAARAARLAELRAEVEAKVAA
B21: A42R (designed binder)
chain: MTLQELLREEALRRAEAEAFRYALELLAEKFPEQKEYLLDLREEIESQIRSLSGVDVEDVRKFLDKEWAWVKELLAEHPAELAEVEAARAARLAELRAEVEAKVAA
B22: T2C (designed binder)
chain: MCLQELLREEALRRAEAEAFRYALELLAEKFPEQKEYLLDLAEEIESQIRSLSGVDVEDVRKFLDKEWAWVKELLAEHPAELAEVEAARAARLAELRAEVEAKVAA
B23: V57R (designed binder)
chain: MTLQELLREEALRRAEAEAFRYALELLAEKFPEQKEYLLDLAEEIESQIRSLSGVDREDVRKFLDKEWAWVKELLAEHPAELAEVEAARAARLAELRAEVEAKVAA
B24: V85H (designed binder)
chain: MTLQELLREEALRRAEAEAFRYALELLAEKFPEQKEYLLDLAEEIESQIRSLSGVDVEDVRKFLDKEWAWVKELLAEHPAELAEHEAARAARLAELRAEVEAKVAA
B25: Y22T (designed binder)
chain: MTLQELLREEALRRAEAEAFRTALELLAEKFPEQKEYLLDLAEEIESQIRSLSGVDVEDVRKFLDKEWAWVKELLAEHPAELAEVEAARAARLAELRAEVEAKVAA
B26: D56M (designed binder)
chain: MTLQELLREEALRRAEAEAFRYALELLAEKFPEQKEYLLDLAEEIESQIRSLSGVMVEDVRKFLDKEWAWVKELLAEHPAELAEVEAARAARLAELRAEVEAKVAA
B27: A19Y (designed binder)
chain: MTLQELLREEALRRAEAEYFRYALELLAEKFPEQKEYLLDLAEEIESQIRSLSGVDVEDVRKFLDKEWAWVKELLAEHPAELAEVEAARAARLAELRAEVEAKVAA
B28: S53N (designed binder)
chain: MTLQELLREEALRRAEAEAFRYALELLAEKFPEQKEYLLDLAEEIESQIRSLNGVDVEDVRKFLDKEWAWVKELLAEHPAELAEVEAARAARLAELRAEVEAKVAA
B29: A106N (designed binder)
chain: MTLQELLREEALRRAEAEAFRYALELLAEKFPEQKEYLLDLAEEIESQIRSLSGVDVEDVRKFLDKEWAWVKELLAEHPAELAEVEAARAARLAELRAEVEAKVAN
B30: A76W (designed binder)
chain: MTLQELLREEALRRAEAEAFRYALELLAEKFPEQKEYLLDLAEEIESQIRSLSGVDVEDVRKFLDKEWAWVKELLWEHPAELAEVEAARAARLAELRAEVEAKVAA
B31: E46K (designed binder)
chain: MTLQELLREEALRRAEAEAFRYALELLAEKFPEQKEYLLDLAEEIKSQIRSLSGVDVEDVRKFLDKEWAWVKELLAEHPAELAEVEAARAARLAELRAEVEAKVAA
B32: S47Y (designed binder)
chain: MTLQELLREEALRRAEAEAFRYALELLAEKFPEQKEYLLDLAEEIEYQIRSLSGVDVEDVRKFLDKEWAWVKELLAEHPAELAEVEAARAARLAELRAEVEAKVAA
B33: T2L (designed binder)
chain: MLLQELLREEALRRAEAEAFRYALELLAEKFPEQKEYLLDLAEEIESQIRSLSGVDVEDVRKFLDKEWAWVKELLAEHPAELAEVEAARAARLAELRAEVEAKVAA
B34: Q34C (designed binder)
chain: MTLQELLREEALRRAEAEAFRYALELLAEKFPECKEYLLDLAEEIESQIRSLSGVDVEDVRKFLDKEWAWVKELLAEHPAELAEVEAARAARLAELRAEVEAKVAA

This experiment deals with T1, TNFR1 (Homo sapiens, UniProt P19438).
T1 chain: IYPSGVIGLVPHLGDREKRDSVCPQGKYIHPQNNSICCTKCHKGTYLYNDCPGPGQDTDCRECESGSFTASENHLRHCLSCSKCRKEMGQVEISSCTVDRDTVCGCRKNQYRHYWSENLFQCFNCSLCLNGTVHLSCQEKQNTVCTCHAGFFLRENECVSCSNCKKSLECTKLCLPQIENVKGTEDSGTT
The experiment in a line: yeast display SC50.
Take B1: the “apparent Kd (screen)” value amounted to 0.539 nM.

With B2, the “apparent Kd (screen)” value was 13.8 nM. B3: the “apparent Kd (screen)” value was found to be 1.05 nM. For B4, the “apparent Kd (screen)” value worked out at 11.4 nM. Next, B5: 1.27 nM; B6: 7.78 nM. For B7, the “apparent Kd (screen)” value came to 0.653 nM. Next, B8: 0.208 nM. In the case of B9 it was 0.539 nM.

B10: the “apparent Kd (screen)” value worked out at 0.335 nM. In the case of B11 it was 0.79 nM. On to B12, for which the “apparent Kd (screen)” value amounted to 0.446 nM. Next, B13: 0.653 nM; B14: 0.653 nM; B15: 0.653 nM. In the case of B16 it was 0.49 nM; in that of B17, 0.869 nM; in that of B18, 0.593 nM. Next, B19: 1.27 nM. Take B20: the “apparent Kd (screen)” value turned out to be 1.05 nM. For the molecule B21, the “apparent Kd (screen)” value came to 2.25 nM.

Take B22: the “apparent Kd (screen)” value is 2.73 nM.

In the case of B23, the “apparent Kd (screen)” value was 0.79 nM.

B24: the “apparent Kd (screen)” value worked out at 1.05 nM. In the case of B25 it was 0.49 nM; in that of B26, 0.956 nM.

B27: the “apparent Kd (screen)” value worked out at 10.4 nM.

Turning to B28, the “apparent Kd (screen)” value was found to be 0.653 nM.

For B29, the “apparent Kd (screen)” value was found to be 1.69 nM. Take B30: the “apparent Kd (screen)” value came to 0.446 nM. On to B31, for which the “apparent Kd (screen)” value is 0.593 nM. Consider B32, for which the “apparent Kd (screen)” value is 0.49 nM.

Consider B33, for which the “apparent Kd (screen)” value is 0.49 nM. Next, B34: 1.05 nM.
